Measured values as given in US20190161551A1 (Regeneron, published 2019).

B2: rat TrkB extracellular domain expressed with a C-terminal myc-myc-hexahistidine tag (receptor)
chain: CPMSCKCSTTRIWCTEPSPGIVAFPRLEPNSIDPENITEILIANQKRLEIINEDDVEAYVGLKNLTIVDSGLKFVAYKAFLKNGNLRHINFTRNKLTSLSRRHFRHLDLSDLILTGNPFTCSCDIMWLKTLQETKSSPDTQDLYCLNESSKNTPLANLQIPNCGLPSARLAAPNLTVEEGKSVTISCSVGGDPLPTLYWDVGNLVSKHMNETSHTQGSLRITNISSDDSGKQISCVAENLVGEDQDSVNLTVHFAPTITFLESPTSDHHWCIPFTVRGNPKPALQWFYNGAILNESKYICTKIHVTNHTEYHGCLQLDNPTHMNNGDYTLMAKNEYGKDERQISAHFMGRPGVDYETNPNYPEVLYEDWTTPTDIGDTTNKSNEIPSTDVADQTNREHEQKLISEEDLGGEQKLISEEDLHHHHHH
notes: also called rTrkB.mmH; rTRKB.mmH
B3: human brain derived neurotrophic factor (ligand, UniProt P23560 129-247, looked up)
chain: HSDPARRGELSVCDSISEWVTAADKKTAVDMSGGTVTVLEKVPVSKGQLKQYFYETKCNPMGYTKEGCRGIDKRHWNSQCRTTQSYVRALTMDSKKRIGWRFIRIDTSCVCTLTIKRGR

Tests used:
[1] = target: T1, mouse TrkB.hFc (mouse); assay: BLI Octet, captured mTrkB.hFc, 300 nM mAb, no ligand
T1 construct: also called mTrkB.hFc; mTrkB-hFc
Method: (§1) Blocking of anti-human TrkB or anti-mouse TrkB antibodies from binding to TrkB by BDNF or NT-4 was evaluated using a real-time bio-layer interferometry (BLI) based Octet HTX instrument. The entire study was performed in 10 mM HEPES pH 7.4, 300 mM NaCl, 3 mM EDTA, 1 mg/mL BSA, 0.02% NaN3 and 0.05% v/v Surfactant Tween-20 (HBS-EBT running buffer) at 25° C. All the samples were dispensed in a 384 tilted well plate and the plate was placed on the orbital shaker with the shake speed of 1000 rpm. hTrkB.mFc was captured on anti-mFc (AMC) Octet sensors while hTrkB.hFc or mTrkB.hFc were captured on anti-hFc (AHC) Octet sensors by dipping in wells containing 10 μg/mL of TrkB reagents for 2 minutes. hTrkB.mFc or hTrkB.hFc captured Octet biosensors were saturated by dipping in wells containing 20 nM of BDNF, hNT-4, or mNT-4 for 2 minutes followed by dipping Octet biosensors in wells containing 300 nM of different TrkB mAbs for 4 minutes. Binding of TrkB mAbs to the complex of TrkB and BDNF, hNT-4, or mNT-4 was determined using Scrubber 2.0c analysis software.

[2] = target: T2, human TrkB expressed on HEK293/SRE-Luc/hTrkB cells (human, UniProt Q16620 32-822); assay: cell-based or functional assay
[3] = target: T3, mouse TrkB extracellular domain fused to the transmembrane and cytoplasmic domains of human TrkB, expressed … (mouse; human, UniProt Q16620 431-822, limits assumed); assay: cell-based or functional assay
[4] = target: T1, mouse TrkB.hFc; assay: BLI Octet, captured mTrkB.hFc, 300 nM mAb (NT-4 run)
Method: (§2) Blocking of BDNF or NT-4 from binding to TrkB by anti-human TrkB or anti-mouse TrkB antibodies was evaluated using a real-time bio-layer interferometry (BLI) based Octet HTX instrument. The entire study was performed in 10 mM HEPES pH 7.4, 300 mM NaCl, 3 mM EDTA, 1 mg/mL BSA, 0.02% NaN3 and 0.05% v/v Surfactant Tween-20 (HBS-EBT running buffer) at 25° C. All the samples were dispensed in a 384 tilted well plate and the plate was placed on the orbital shaker with the shake speed of 1000 rpm. hTrkB.mFc was captured on anti-mFc (AMC) Octet sensors while hTrkB.hFc or mTrkB.hFc were captured on anti-hFc (AHC) Octet sensors by dipping in wells containing 10 μg/mL of TrkB reagents for 2 minutes. hTrkB.mFc or hTrkB.hFc captured Octet biosensors were saturated by dipping in wells containing 300 nM of different TrkB mAbs for 4 minutes followed by dipping Octet biosensors in wells containing 20 nM of BDNF, hNT-4, or mNT-4 for 2 minutes. Binding of BDNF, hNT-4, or mNT-4 to the complex of TrkB and different TrkB mAbs was determined using Scrubber 2.0c analysis software.

[5] = target: B2; assay: blocking ELISA, rat TrkB.mmh pre-mixed with mAb, plate-coated BDNF
Method: (§3) Experiments were carried out using the following procedure. Human BDNF was coated at a concentration of 0.5 μg/mL (for blocking mouse TrkB.hFc interaction) or 0.3 μg/mL (for blocking rat TrkB.mmh interaction) in PBS on 96-well microtiter plate and incubated overnight at 4° C. […] In a 96-well dilution plate, 850 pM mouse TrkB.hFc or rat TrkB.mmh was mixed with the three-fold serially diluted anti-mouse TrkB antibodies and control antibody. The final antibody concentrations ranged from 1.69 pM to 100 nM. The protein-antibody mix was incubated at room temperature (RT) for 1 hour. The pre-bound mix was then transferred in duplicates to microtiter plates coated with BDNF. A control containing assay buffer alone was included to calculate the baseline of the assay. The ELISA plates were incubated at RT for 1 hour and then washed with plate washing solution. Plate-bound mouse TrkB.hFc was detected with HRP-conjugated goat anti-human Fcγ fragment specific antibody (Jackson Immunoresearch) and rat TrkB.mmh was detected with HRP-conjugated anti-histidine antibody (Qiagen). The plates were incubated with detection antibody for 1 hour at RT and then washed with plate washing solution. The assay plates were developed with TMB colorimetric substrates according to the manufacturer's recommended procedure.
(§4) The absorbance at 450 nm for each well was recorded and plotted as a function of the concentration of antibody. Data was analyzed in GraphPad Prism software using a four-parameter logistic equation over an 11-point dose response curve and IC₅₀ values were calculated. […] Percent blockade at maximum concentration of the antibody tested was calculated as an indicator of the ability of the antibodies to block the binding of TrkB to BDNF on the plate relative to the baseline of the assay. Binding signal of 850 pM mouse or rat TrkB in absence of the antibody was defined as 100% binding or 0% blocking. The baseline signal of assay buffer alone was defined as 0% binding or 100% blocking.

[6] = target: T1, mouse TrkB.hFc; assay: BLI Octet, captured mTrkB.hFc saturated with mNT-4, 300 nM mAb
Method: as §1

[7] = target: T1, mouse TrkB.hFc; assay: blocking ELISA, mouse TrkB.hFc pre-mixed with mAb, plate-coated BDNF
Method: as §3, §4

[8] = target: T1, mouse TrkB.hFc; assay: BLI Octet, captured mTrkB.hFc, 300 nM mAb (BDNF run)
Method: as §2

[9] = target: B2; assay: SPR Biacore T200, mAb captured (anti-mFc), 25C
Method: (§5) Equilibrium dissociation constants (KD values) for TrkB binding to purified anti-TrkB monoclonal antibodies were determined using a real-time surface plasmon resonance biosensor using a Biacore T200 instrument. All binding studies were performed in 10 mM Hepes pH 7.4, 150 mM NaCl, 3 mM EDTA, and 0.05% v/v Surfactant Tween-20 (HBS-ET running buffer) at 25° C. The Biacore sensor surface was first derivatized by amine coupling with rabbit anti-mouse Fc polyclonal antibody (GE Healthcare #BR-1008-38) to capture anti-TrkB monoclonal antibodies. Binding studies were performed on the following TrkB reagents; human TrkB extracellular domain expressed with a C-terminal myc-myc-hexahistidine tag (hTrkB.mmH; SEQ ID NO: 76; NP_001018074.1), mouse TrkB extracellular domain expressed with a C-terminal myc-myc-hexahistidine tag (mTRKB.mmH; SEQ ID NO: 79; NP_001020245), and rat TrkB extracellular domain expressed with a C-terminal myc-myc-hexahistidine tag (rTRKB.mmH; SEQ ID NO: 84; XP_002721319.1). […] Kinetic association (kₐ) and dissociation (kd) rate constants were determined by fitting the real-time binding sensorgrams to a 1:1 binding model with mass transport limitation using Scrubber 2.0c curve-fitting software. Binding dissociation equilibrium constants (KD) and dissociative half-lives (t½) were calculated from the kinetic rate constants as: […]

[10] = target: T4, mouse TrkB extracellular domain expressed with a C-terminal myc-myc-hexahistidine tag (mouse, UniProt P15209 32-429); assay: SPR Biacore T200, mAb captured (anti-mFc), 25C
T4 construct: also called mTrkB.mmH; mTRKB.mmH
Method: as §5

[11] = target: T5, human TrkB extracellular domain expressed with a C-terminal myc-myc-hexahistidine tag (human, UniProt Q16620 32-430); assay: SPR Biacore T200, mAb captured (anti-mFc), 25C
T5 construct: also called hTrkB.mmH; hTRKB.mmH
Method: as §5

[12] = target: T1, mouse TrkB.hFc; assay: BLI Octet, captured mTrkB.hFc saturated with BDNF, 300 nM mAb
Method: as §1

[13] = target: B3; assay: ELISA, dose-response of TrkB on plate-coated BDNF
Text: FIG. 5. Consists of FIG. 5A and FIG. 5B which show the ability of anti-mouse TrkB monoclonal antibodies to block interaction between mouse or rat TrkB and its ligand BDNF (Brain Derived Neurotrophic Factor). ELISA-based methods were used to assess the binding of (FIG. 5A with two graphs) mouse TrkB.hFc and (FIG. 5B with two graphs) rat TrkB.mmh to plate coated BDNF in presence of a range of concentrations of Anti-mouse TrkB and isotype control mAbs. […] Molarity (M) indicates antibody concentration for mAbs. Error bars represent Standard Deviation.
(§6) Experiments were carried out using the following procedure. Human BDNF was coated at a concentration of 0.5 μg/mL (for blocking mouse TrkB.hFc interaction) or 0.3 μg/mL (for blocking rat TrkB.mmh interaction) in PBS on 96-well microtiter plate and incubated overnight at 4° C. […] In a 96-well dilution plate, 850 pM mouse TrkB.hFc or rat TrkB.mmh was mixed with the three-fold serially diluted anti-mouse TrkB antibodies and control antibody. The final antibody concentrations ranged from 1.69 pM to 100 nM. The protein-antibody mix was incubated at room temperature (RT) for 1 hour. […] Plate-bound mouse TrkB.hFc was detected with HRP-conjugated goat anti-human Fcγ fragment specific antibody (Jackson Immunoresearch) and rat TrkB.mmh was detected with HRP-conjugated anti-histidine antibody (Qiagen). […]

[14] = target: B3; assay: ELISA: dose curve of rat TrkB.mmh binding to plate-coated BDNF, absorbance 450 nm
Method: as §6, with “hour. The pre-bound mix was then transferred in duplicates to microtiter plates coated with BDNF.” for “hour.”
The absorbance at 450 nm for each well was recorded and plotted as a function of the concentration of antibody. Data was analyzed in GraphPad Prism software using a four-parameter logistic equation over an 11-point dose response curve and IC₅₀ values were calculated. […] Percent blockade at maximum concentration of the antibody tested was calculated as an indicator of the ability of the antibodies to block the binding of TrkB to BDNF on the plate relative to the baseline of the assay. […]

[15] = target: T2, human TrkB expressed on …; assay: cell-based or functional assay; remark: listed apart in the source
[16] = target: T3, mouse TrkB extracellular domain fused …; assay: cell-based or functional assay; remark: listed apart in the source

T1 sequence (chain, as listed by the source limits assumed): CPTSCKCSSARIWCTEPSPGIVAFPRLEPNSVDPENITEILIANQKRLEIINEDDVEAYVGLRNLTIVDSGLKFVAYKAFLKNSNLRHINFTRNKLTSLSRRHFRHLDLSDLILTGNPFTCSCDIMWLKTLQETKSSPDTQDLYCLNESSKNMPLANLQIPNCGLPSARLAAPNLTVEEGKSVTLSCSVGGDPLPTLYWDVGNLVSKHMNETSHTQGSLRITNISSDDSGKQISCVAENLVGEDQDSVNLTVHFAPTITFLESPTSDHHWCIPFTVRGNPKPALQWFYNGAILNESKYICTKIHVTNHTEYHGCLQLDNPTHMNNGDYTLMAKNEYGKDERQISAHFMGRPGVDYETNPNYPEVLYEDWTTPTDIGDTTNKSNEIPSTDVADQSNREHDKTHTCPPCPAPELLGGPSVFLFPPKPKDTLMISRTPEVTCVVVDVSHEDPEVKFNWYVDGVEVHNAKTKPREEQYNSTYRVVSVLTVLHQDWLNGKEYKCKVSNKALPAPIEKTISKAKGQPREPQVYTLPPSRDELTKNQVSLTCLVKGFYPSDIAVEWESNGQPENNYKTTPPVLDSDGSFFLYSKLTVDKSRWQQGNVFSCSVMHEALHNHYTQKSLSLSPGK
T2 sequence (Q16620 32-822): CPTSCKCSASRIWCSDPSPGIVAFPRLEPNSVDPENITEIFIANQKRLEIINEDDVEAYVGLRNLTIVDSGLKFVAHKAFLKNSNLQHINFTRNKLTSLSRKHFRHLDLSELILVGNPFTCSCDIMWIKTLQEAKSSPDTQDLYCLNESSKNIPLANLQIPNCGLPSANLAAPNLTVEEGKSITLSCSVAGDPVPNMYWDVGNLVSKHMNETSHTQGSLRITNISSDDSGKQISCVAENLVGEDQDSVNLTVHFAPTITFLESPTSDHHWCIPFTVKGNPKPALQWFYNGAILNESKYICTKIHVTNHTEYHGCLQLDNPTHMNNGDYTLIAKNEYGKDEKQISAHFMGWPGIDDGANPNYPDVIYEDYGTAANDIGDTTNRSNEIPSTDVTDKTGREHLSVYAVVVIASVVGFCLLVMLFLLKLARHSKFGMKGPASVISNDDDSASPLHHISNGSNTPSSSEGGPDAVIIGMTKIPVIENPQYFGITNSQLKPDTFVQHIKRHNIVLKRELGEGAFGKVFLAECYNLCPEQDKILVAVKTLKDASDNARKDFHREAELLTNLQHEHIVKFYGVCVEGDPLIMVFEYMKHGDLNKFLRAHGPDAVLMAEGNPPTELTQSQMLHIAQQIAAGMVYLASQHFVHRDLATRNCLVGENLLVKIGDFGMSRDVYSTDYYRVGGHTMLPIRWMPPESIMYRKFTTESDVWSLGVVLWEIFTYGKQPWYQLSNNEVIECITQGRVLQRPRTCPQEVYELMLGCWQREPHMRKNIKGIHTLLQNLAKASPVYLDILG
T3 sequence (Q16620 other isoform, or with tags, fused parts or gaps limits assumed, form in doubt): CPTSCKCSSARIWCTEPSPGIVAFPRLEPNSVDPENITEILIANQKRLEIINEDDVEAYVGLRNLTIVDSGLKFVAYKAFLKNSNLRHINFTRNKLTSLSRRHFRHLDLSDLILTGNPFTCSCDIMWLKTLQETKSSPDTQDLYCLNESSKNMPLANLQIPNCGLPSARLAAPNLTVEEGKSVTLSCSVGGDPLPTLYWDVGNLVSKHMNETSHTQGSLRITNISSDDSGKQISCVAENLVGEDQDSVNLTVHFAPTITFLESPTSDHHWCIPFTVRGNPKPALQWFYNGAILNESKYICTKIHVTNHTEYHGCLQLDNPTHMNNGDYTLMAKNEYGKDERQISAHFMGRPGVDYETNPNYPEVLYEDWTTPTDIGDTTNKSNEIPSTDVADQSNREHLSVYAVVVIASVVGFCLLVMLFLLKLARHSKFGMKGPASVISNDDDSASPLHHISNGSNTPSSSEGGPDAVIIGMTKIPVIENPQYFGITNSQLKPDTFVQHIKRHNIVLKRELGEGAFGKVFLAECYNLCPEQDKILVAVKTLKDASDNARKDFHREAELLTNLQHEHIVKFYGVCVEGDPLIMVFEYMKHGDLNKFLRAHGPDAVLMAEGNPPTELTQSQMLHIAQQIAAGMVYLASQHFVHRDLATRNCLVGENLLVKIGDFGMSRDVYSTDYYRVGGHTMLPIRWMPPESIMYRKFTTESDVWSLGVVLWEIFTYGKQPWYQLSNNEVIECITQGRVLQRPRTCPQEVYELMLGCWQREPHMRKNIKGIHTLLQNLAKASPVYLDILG

B1: M2aM14178N (antibody, mouse IgG2a, V domains shown)
VH: EVQLVESGGGLVKPGGSLKLSCTASGFTFSSYAMSWVRQTPEKRLEWVANISDGGTYTYYPDNIKGRFTISRDNAKNNLYLQMSHLESEDTAMYYCIRGDVYYVRFAYWGQGTLVTVSA
VL: QAVVTQESALTTSPGETVTLTCRSSTGAVTSSNHANWVQEKPDHLFTGLIGGTNNRAPGVPARFSGSLIGDKAALTITGAQTEDEAIYFCALWHSNHWVFGGGTKLTVLG
notes: Anti-mouse TrkB antibody from hybridoma, mouse IgG2a Fc; also called surrogate anti-mouse TrkB antibody
- antibody Binding (nm) [1]: 0.47 nm
- Activation (%), SRE-luciferase, 100 pM BDNF [2]: 52%
- Activation (%), SRE-luciferase, No BDNF [2]: 0%
- Activation (%), SRE-luciferase, 100 pM BDNF [3]: 67%
- Activation (%), SRE-luciferase, No BDNF [3]: 76%
- EC50 (M), SRE-luciferase, 100 pM BDNF [3]: 1e-10 M
- EC50 (M), SRE-luciferase, No BDNF [3]: 1.9e-10 M
- mAb Binding (nm) [4]: 0.47 nm
- % Blockade with 100 nM antibody [5]: 89.5%
- IC50 [5]: 0.184 nM
- antibody Binding (nm) [6]: 0.41 nm
- % Blockade with 100 nM antibody [7]: 84.4%
- IC50 [7]: 0.426 nM
- mAb Binding (nm) [8]: 0.47 nm
- 90 nM rTrkB.mmH Bound (RU) [9]: 11 RU
- Kd [9]: 2.56 nM
- koff [9]: 0.00023 s⁻¹
- kon [9]: 90000 M⁻¹ s⁻¹
- t½ [9]: 50 min
- 90 nM TrkB.mmH Bound (RU) [10]: 12 RU
- Kd [10]: 2.39 nM
- koff [10]: 0.000247 s⁻¹
- kon [10]: 103000 M⁻¹ s⁻¹
- t½ [10]: 47 min
- 90nM hTrkB.mmH Bound (RU) [11]: -1 RU
- antibody Binding (nm) [12]: 0.35 nm

Binder: B2
- EC50 [13]: 2.2 nM
- EC50 [14]: 2.22 nM

Binder: B3
- BDNF EC50 (M), SRE-luciferase [15]: 1e-10 M
- BDNF EC50 (M), SRE-luciferase [16]: 7.4e-11 M
- BDNF EC50 (M), SRE-luciferase (run of the 100 pM BDNF columns) [2]: 1e-10 M
- BDNF EC50 (M), SRE-luciferase (run of the No BDNF columns) [2]: 1.3e-10 M
- BDNF EC50 (M), SRE-luciferase (run of the 100 pM BDNF columns) [3]: 1.1e-10 M
- BDNF EC50 (M), SRE-luciferase (run of the No BDNF columns) [3]: 7.4e-11 M
